Test results reported in KR20220116962A (dated 2022).

Tests used:
[1] = biological target: T1, GPR87(N)-GST (인간 GPR87 N-말단 세포외부위 영역과 GST 융합 항원) (human); assay: single-clone phage ELISA after 4 rounds of biopanning
T1 construct: also called GPR87-GST

[2] = biological target: T2, GPR87(N)-Streptavidin (인간 GPR87 N-말단 세포외부위 영역과 STV 융합 항원) (human); assay: as above
T2 construct: Purified on Ni-NTA, so a His tag is implied but not described; also called GPR87-STV
T2 chain: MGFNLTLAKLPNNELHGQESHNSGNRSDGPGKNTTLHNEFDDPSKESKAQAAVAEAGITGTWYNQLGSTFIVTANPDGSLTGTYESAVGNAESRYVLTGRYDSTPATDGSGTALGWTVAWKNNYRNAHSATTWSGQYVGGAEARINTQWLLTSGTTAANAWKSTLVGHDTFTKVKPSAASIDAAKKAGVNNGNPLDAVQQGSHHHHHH

[3] = biological target: T1, GPR87(N)-GST (인간 GPR87 N-말단 세포외부위 영역과 …); assay: ELISA, antigen coated, IgG titrated; apparent equilibrium dissociation constant
[4] = biological target: T2, GPR87(N)-Streptavidin (인간 GPR87 N-말단 …); assay: as above

Row | Binder | binding result [1] | binding result [2] | Kd [3] [nM] | Kd [4] [nM]
1 | B1 (scFv), phage-displayed clone (scFv) scFv: EVQLVESGGGLVQPGRSLRLSCKASGFNFDEYALSWVRQAPGKGLEWVGFIRSKAYRETTEYAASVKGRCTISRDDSKSIAYLLMNSLRAEDTAVYYCARGHTPQRPYFDEWGQGTLVTVSSGGGSSGGGGSGGGGSGGGGSDIQMTQSPSFLSASVGDRITITCRASQSVGTYVNWYQQKLGKAPKLLIYTASTLQSGVPARFSGSGSGTEFTLTINGLQPEDFATYYCQQSYRPHFLTFGGGTQLTVLG | binds | binds |  | 
2 | 단일클론항체 A5 (IgG) (antibody, V domains shown, also called A5 항체) VH: QVQLVQSGPGLVKPSETLSLTCSVSGGSMTSYYWSWVRQPPGKGLEWMGYVFHSGITNYSPSLKSRVTMSVDTSKNQFSLKLKSVTAVDTAVYYCAKKSGTSKKPIDYWGQGTTVTVSS VL: DIVMTQSPSSLSASVGDRITITCRASQSVGTYVNWYQHKPGKAPKLLIYDASNLETGVPSRFSGSGSVTDFTLTITNLQPEDSATYYCLQHKNYPLTFGGGTKVEIKR |  |  | 13.3 | 14.7
3 | A5 (scFv), phage-displayed clone (scFv) scFv: QVQLVQSGPGLVKPSETLSLTCSVSGGSMTSYYWSWVRQPPGKGLEWMGYVFHSGITNYSPSLKSRVTMSVDTSKNQFSLKLKSVTAVDTAVYYCAKKSGTSKKPIDYWGQGTTVTVSSGGGSSGGGGSGGGGSGGGGSDIVMTQSPSSLSASVGDRITITCRASQSVGTYVNWYQHKPGKAPKLLIYDASNLETGVPSRFSGSGSVTDFTLTITNLQPEDSATYYCLQHKNYPLTFGGGTKVEIKR | binds | binds |  | 
4 | 단일클론항체 B1 (IgG) (antibody, V domains shown, also called B1 항체) VH: EVQLVESGGGLVQPGRSLRLSCKASGFNFDEYALSWVRQAPGKGLEWVGFIRSKAYRETTEYAASVKGRCTISRDDSKSIAYLLMNSLRAEDTAVYYCARGHTPQRPYFDEWGQGTLVTVSS VL: DIQMTQSPSFLSASVGDRITITCRASQSVGTYVNWYQQKLGKAPKLLIYTASTLQSGVPARFSGSGSGTEFTLTINGLQPEDFATYYCQQSYRPHFLTFGGGTQLTVLG |  |  | 18.1 | 19.9
